1 substance from paper PMC2928021 can be followed below.

The target in this assay is anaphase-promoting complex/cyclosome (APC/C), phosphorylated, of mitotic cells (human (endogenous in U2OS)) (UniProt P30260). In words: co-sedimentation.
Chain of UniProt P30260 (P30260 whole entry, looked up, one chain of several): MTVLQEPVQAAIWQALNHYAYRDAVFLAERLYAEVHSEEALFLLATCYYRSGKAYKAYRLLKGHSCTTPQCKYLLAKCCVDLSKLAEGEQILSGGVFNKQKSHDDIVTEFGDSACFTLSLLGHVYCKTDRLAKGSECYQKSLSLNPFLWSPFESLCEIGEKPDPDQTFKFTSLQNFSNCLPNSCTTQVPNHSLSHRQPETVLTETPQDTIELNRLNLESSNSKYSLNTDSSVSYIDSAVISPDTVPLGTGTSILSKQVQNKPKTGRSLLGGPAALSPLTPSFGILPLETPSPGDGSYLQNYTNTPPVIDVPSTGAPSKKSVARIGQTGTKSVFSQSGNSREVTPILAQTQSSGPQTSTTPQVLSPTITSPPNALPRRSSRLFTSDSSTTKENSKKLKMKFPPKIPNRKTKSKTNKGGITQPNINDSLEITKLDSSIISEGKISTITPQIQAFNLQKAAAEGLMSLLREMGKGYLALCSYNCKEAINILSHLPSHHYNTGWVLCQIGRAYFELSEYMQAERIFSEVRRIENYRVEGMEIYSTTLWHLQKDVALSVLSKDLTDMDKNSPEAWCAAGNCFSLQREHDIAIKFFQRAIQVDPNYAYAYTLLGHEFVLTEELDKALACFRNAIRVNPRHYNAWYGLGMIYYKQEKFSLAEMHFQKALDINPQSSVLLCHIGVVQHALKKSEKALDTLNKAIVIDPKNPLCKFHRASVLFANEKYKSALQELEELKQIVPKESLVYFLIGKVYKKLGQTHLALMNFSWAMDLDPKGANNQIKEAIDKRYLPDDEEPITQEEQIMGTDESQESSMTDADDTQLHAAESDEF

Substance “cyclin B1–N–Cks1–Venus (from UniProt P14635;P61024)” returned a percent comigrating of 40%.
